Legend:
HLA-B*15:17 [1] = test: IEDB peptide-MHC binding, purified MHC/direct/fluorescence; filed as Kd, often an IC50 or EC50 that approximates it; ≥ and ≤ were set here for values at or beyond the usual limits of such assays
HLA-A*26:01 [2] = test: as above
HLA-B*18:01 = test: as above
HLA-B*07:02 = test: as above
HLA-A*01:01 = test: as above
HLA-A*11:01 [3] = test: as above
HLA-B*58:01 = test: as above
HLA-A*31:01 [4] = test: as above
HLA-B*57:01 = test: as above
HLA-A*02:01 [5] = test: IEDB peptide-MHC binding, purified MHC/competitive/fluorescence; filed as Kd, often an IC50 or EC50 that approximates it; ≥ and ≤ were set here for values at or beyond the usual limits of such assays; conditions: source organism: Giardia lamblia ATCC 50803
HLA-B*39:01 = test: as above
HLA-A*30:01 = test: as above
HLA-A*02:03 = test: as above; conditions: source organism: Giardia lamblia ATCC 50803
HLA-A*68:02 [6] = test: as above
HLA-A*26:02 [7] = test: as above
HLA-B*15:01 [8] = test: as above
HLA-A*26:03 = test: as above
HLA-A*26:02 [9] = test: IEDB peptide-MHC binding, purified MHC/direct/fluorescence; filed as Kd, often an IC50 or EC50 that approximates it; ≥ and ≤ were set here for values at or beyond the usual limits of such assays
HLA-A*11:01 [10] = test: IEDB peptide-MHC binding, purified MHC/competitive/fluorescence; ≥ and ≤ were set here for values at or beyond the usual limits of such assays; conditions: source organism: Vaccinia virus WR
HLA-B*15:01 [11] = test: as above; conditions: source organism: Vaccinia virus WR
HLA-B*08:03 = test: IEDB peptide-MHC binding, purified MHC/direct/fluorescence; filed as Kd, often an IC50 or EC50 that approximates it; ≥ and ≤ were set here for values at or beyond the usual limits of such assays; conditions: source organism: Variola virus
HLA-A*02:01 [12] = test: as above
HLA-B*08:01 = test: as above
HLA-B*46:01 = test: as above; conditions: source organism: Camelpox virus M-96
HLA-A*68:02 [13] = test: as above; conditions: source organism: Camelpox virus M-96
HLA-B*15:01 [14] = test: as above; conditions: source organism: Camelpox virus M-96
HLA-B*27:05 = test: as above
HLA-B*15:09 [15] = test: as above; conditions: source organism: Variola virus
HLA-A*69:01 = test: as above
HLA-B*48:01 = test: as above
HLA-B*15:03 = test: IEDB peptide-MHC binding, purified MHC/competitive/radioactivity; filed as Kd, often an IC50 or EC50 that approximates it; ≥ and ≤ were set here for values at or beyond the usual limits of such assays; conditions: source organism: Vaccinia virus WR
HLA-A*26:01 [16] = test: IEDB peptide-MHC binding, purified MHC/competitive/fluorescence; filed as Kd, often an IC50 or EC50 that approximates it; ≥ and ≤ were set here for values at or beyond the usual limits of such assays; conditions: source organism: Vaccinia virus WR
HLA-A*11:01 [17] = test: as above
HLA-A*31:01 [18] = test: as above; conditions: source organism: Vaccinia virus WR
HLA-B*35:01 = test: as above; conditions: source organism: Vaccinia virus WR
HLA-B*40:01 = test: IEDB peptide-MHC binding, purified MHC/direct/fluorescence; filed as Kd, often an IC50 or EC50 that approximates it; ≥ and ≤ were set here for values at or beyond the usual limits of such assays
HLA-B*15:09 [19] = test: IEDB peptide-MHC binding, purified MHC/competitive/fluorescence; filed as Kd, often an IC50 or EC50 that approximates it; ≥ and ≤ were set here for values at or beyond the usual limits of such assays
HLA-B*51:01 = test: IEDB peptide-MHC binding, purified MHC/direct/fluorescence; filed as Kd, often an IC50 or EC50 that approximates it; ≥ and ≤ were set here for values at or beyond the usual limits of such assays; conditions: source organism: Camelpox virus M-96
HLA-A*03:01 = test: as above; conditions: source organism: Variola virus
HLA-B*15:17 [20] = test: IEDB peptide-MHC binding, purified MHC/competitive/fluorescence; filed as Kd, often an IC50 or EC50 that approximates it; ≥ and ≤ were set here for values at or beyond the usual limits of such assays; conditions: source organism: Vaccinia virus
[21] = source organism: Giardia lamblia ATCC 50803
[22] = source organism: Escherichia coli O157:H7 str. EDL933
[23] = source organism: Camelpox virus M-96
[24] = source organism: Vaccinia virus WR
[25] = source organism: Francisella tularensis subsp. holarctica LVS
[26] = source organism: Francisella tularensis subsp. tularensis FSC033
[27] = source organism: Francisella tularensis subsp. tularensis FSC198
[28] = source organism: Vaccinia virus

Q: What does the source list for FMKVKFEAL?
A: Kd (HLA-B*15:17 [1]; [21]): ≥ 20 µM; Kd (HLA-A*26:01 [2]; [21]): ≥ 20 µM; Kd (HLA-B*18:01; [21]): ≥ 20 µM; Kd (HLA-B*07:02; [21]): ≥ 20 µM; Kd (HLA-A*01:01; [21]): ≥ 20 µM; Kd (HLA-A*11:01 [3]; [21]): ≥ 20 µM; Kd (HLA-B*58:01; [21]): ≥ 20 µM; Kd (HLA-A*31:01 [4]; [21]): ≥ 20 µM; Kd (HLA-B*57:01; [21]): ≥ 20 µM; Kd (HLA-A*02:01 [5]): 0.217 µM; Kd (HLA-B*39:01; [21]): ≥ 20 µM; Kd (HLA-A*30:01; [21]): 4.26 µM; Kd (HLA-A*02:03): 0.0298 µM; Kd (HLA-A*68:02 [6]; [21]): 4.62 µM; Kd (HLA-A*26:02 [7]; [21]): ≥ 20 µM; Kd (HLA-B*15:01 [8]; [21]): 0.168 µM; Kd (HLA-A*26:03; [21]): ≥ 20 µM

Q: Which Kd (HLA-A*26:01 [2]; [22]) does the source give for FTHREQLFM here?
A: 0.059 µM

Q: And the Kd (HLA-A*26:02 [9]; [22])?
A: 0.028 µM

Q: Which IC50 (HLA-A*11:01 [10]) does the source give for IQFMHEQGY here?
A: ≥ 108 µM

Q: And the IC50 (HLA-B*15:01 [11])?
A: 6.83 µM

Q: What about the Kd (HLA-B*08:03) of the same sequence?
A: ≥ 20 µM

Q: What about the Kd (HLA-B*15:17 [1]; [23]) of the same sequence?
A: 0.29 µM

Q: What about the Kd (HLA-A*02:01 [12]; [23]) of the same sequence?
A: ≥ 20 µM

Q: What about the Kd (HLA-B*08:01; source organism: Variola virus) of the same sequence?
A: ≥ 20 µM

Q: And the Kd (HLA-B*07:02; [23])?
A: ≥ 20 µM

Q: And the Kd (HLA-B*46:01)?
A: ≥ 20 µM

Q: And the Kd (HLA-A*01:01; [23])?
A: ≥ 20 µM

Q: And the Kd (HLA-A*68:02 [13])?
A: ≥ 20 µM

Q: What about the Kd (HLA-B*15:01 [14]) of the same sequence?
A: 0.052 µM

Q: And the Kd (HLA-B*58:01; [23])?
A: ≥ 20 µM

Q: And the Kd (HLA-B*27:05; [23])?
A: 0.929 µM

Q: What about the Kd (HLA-B*15:09 [15]) of the same sequence?
A: ≥ 20 µM

Q: What about the Kd (HLA-A*69:01; [23]) of the same sequence?
A: ≥ 20 µM

Q: And the Kd (HLA-B*48:01; [23])?
A: ≥ 20 µM

Q: What about the Kd (HLA-B*57:01; [23]) of the same sequence?
A: 1.96 µM

Q: And the Kd (HLA-B*15:03)?
A: 0.00366 µM

Q: What about the Kd (HLA-A*26:01 [16]) of the same sequence?
A: ≥ 20 µM

Q: What about the Kd (HLA-A*30:01; [24]) of the same sequence?
A: 0.0024 µM

Q: What about the Kd (HLA-A*11:01 [17]; [24]) of the same sequence?
A: ≥ 20 µM

Q: And the Kd (HLA-A*26:02 [7]; [24])?
A: ≥ 20 µM

Q: What about the Kd (HLA-A*31:01 [18]) of the same sequence?
A: ≥ 20 µM

Q: What about the Kd (HLA-B*35:01) of the same sequence?
A: 0.104 µM

Q: PTIPEQKCM was tested. Which Kd (HLA-A*26:03; source organism: Entamoeba histolytica HM-1:IMSS) did it give?
A: ≥ 20 µM

Q: REMGIVDLL was tested. Which Kd (HLA-B*15:17 [1]; [25]) did it give?
A: ≥ 20 µM

Q: What about the Kd (HLA-A*02:01 [12]; [25]) of the same sequence?
A: ≥ 20 µM

Q: What about the Kd (HLA-B*08:01; [26]) of the same sequence?
A: ≥ 20 µM

Q: And the Kd (HLA-B*18:01; [25])?
A: 0.514 µM

Q: What about the Kd (HLA-B*07:02; [25]) of the same sequence?
A: ≥ 20 µM

Q: And the Kd (HLA-A*01:01; [25])?
A: ≥ 20 µM

Q: And the Kd (HLA-A*11:01 [3]; [25])?
A: ≥ 20 µM

Q: And the Kd (HLA-A*26:02 [9]; [26])?
A: ≥ 20 µM

Q: What about the Kd (HLA-B*58:01; [25]) of the same sequence?
A: ≥ 20 µM

Q: And the Kd (HLA-B*27:05; [25])?
A: ≥ 20 µM

Q: What about the Kd (HLA-A*31:01 [4]; [25]) of the same sequence?
A: ≥ 20 µM

Q: And the Kd (HLA-B*40:01; [25])?
A: 0.0014 µM

Q: And the Kd (HLA-A*69:01; [25])?
A: ≥ 20 µM

Q: What about the Kd (HLA-B*48:01; [25]) of the same sequence?
A: 0.0932 µM

Q: What about the Kd (HLA-B*57:01; [25]) of the same sequence?
A: ≥ 20 µM

Q: And the Kd (HLA-B*39:01; [27])?
A: 4 µM

Q: What about the Kd (HLA-A*68:02 [6]; [27]) of the same sequence?
A: ≥ 20 µM

Q: And the Kd (HLA-B*15:09 [19]; [27])?
A: ≥ 20 µM

Q: Which Kd (HLA-A*02:01 [12]; [23]) does the source give for RVATENIAV here?
A: 0.0227 µM

Q: And the Kd (HLA-B*08:01; source organism: Variola virus)?
A: ≥ 20 µM

Q: What about the Kd (HLA-B*51:01) of the same sequence?
A: ≥ 20 µM

Q: What about the Kd (HLA-B*18:01; [23]) of the same sequence?
A: ≥ 20 µM

Q: What about the Kd (HLA-B*07:02; [23]) of the same sequence?
A: 0.226 µM

Q: What about the Kd (HLA-B*46:01) of the same sequence?
A: ≥ 20 µM

Q: What about the Kd (HLA-A*01:01; [23]) of the same sequence?
A: ≥ 20 µM

Q: What about the Kd (HLA-B*58:01; [23]) of the same sequence?
A: ≥ 20 µM

Q: And the Kd (HLA-B*27:05; [23])?
A: ≥ 20 µM

Q: What about the Kd (HLA-A*31:01 [4]; [23]) of the same sequence?
A: ≥ 20 µM

Q: And the Kd (HLA-A*03:01)?
A: ≥ 20 µM

Q: And the Kd (HLA-B*40:01; [23])?
A: ≥ 20 µM

Q: What about the Kd (HLA-A*69:01; [23]) of the same sequence?
A: 0.156 µM

Q: And the Kd (HLA-B*48:01; [23])?
A: ≥ 20 µM

Q: And the Kd (HLA-B*57:01; [23])?
A: ≥ 20 µM

Q: What about the Kd (HLA-B*15:17 [20]) of the same sequence?
A: ≥ 20 µM

Q: And the Kd (HLA-B*39:01; [28])?
A: 2.81 µM

Q: What about the Kd (HLA-A*11:01 [17]; [28]) of the same sequence?
A: ≥ 20 µM

Q: What about the Kd (HLA-B*15:01 [8]; [28]) of the same sequence?
A: 0.445 µM

Q: What about the Kd (HLA-B*15:09 [19]; [28]) of the same sequence?
A: ≥ 20 µM

Q: How did the Kd (HLA-A*26:02 [9]; source organism: Listeria monocytogenes serotype 4b str. H7858) turn out when STPAILHIM was run?
A: 0.003 µM

Reference: the Immune Epitope Database (IEDB)
